Laboratory results taken from the nanobody polyreactivity screen of Harvey et al. (2022).

Assay: yeast display, Sf9 membrane polyspecificity reagent, FACS + sequencing; frameworks hold sequencing errors
Procedure, shortened: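 Polyreactivity labels are assigned by the sorting gate from which each nanobody was recovered. The gates were low and high (top ~1%), set on anti-HA fluorescence for expression and streptavidin fluorescence for reagent binding. Before sorting, galactose-induced (36–48 hours) yeast display cells were stained for 1 hour at 4 °C with 10% biotinylated, detergent-solubilized Sf9 membrane reagent.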

Sequence | polyreactivity (PSR sort gate)
QVQLVESGGGLVQAGGSIRLSCAASGSIFRPYVMGWSRPAPGKERELVAAISSRGGDTYYADYVKGRFTISRDYAKNTVNVQMISLKPEDTAVYYCNARYYTSYDYWGQGSQVTVSS | low polyreactivity
QVHLVDSGGGLVQAGGSLRLRCAASGSSFNPNAMGLYRQDPGKERELVAAITSGGSTYYADSVKGRFTISRDNAKNTVYLQINSLKQEDTAVYYCNKALTSKDYPVRTVERDYWGQGTKVTVSS | low polyreactivity
QVQLVESGGGLVQAGGSLRLSCAASGRTFVPYAMGWYRQAPGKEREFVAAISSRVGSTYYADSVKGRFTISRDNAKNTVYLQMNSLKPEDTAVYYCNAPFKPAGFYSAWKYDYWGQGTQVTVSS | low polyreactivity
QVHLVESGGGLVQAGGSLRLSCAASGSILSDNTLGWYRQAPGKERELVAAISRSGGTTYYADSVKGRFTISRDNAKNTVYLQMNSLKPEDTAVYYCAARYYYRYNYWGQGTQVTVSS | high polyreactivity
QVQLEESGGGLVQAGGSLRLSCAASGSTFYVYAMGWYIQAPGKERELVAAITDSGGSTYADSVKGRFTISRDNAKNTVYLQMNSLKPEDTAVYADSTYTWYYYYWGQGTQVTVSS | low polyreactivity
QVQLVESGGGLVQAGGSLRLSCAASGYISFGYAMGWYRQAPGKEREFVAAISVGGGTTYYADSVKGRFTISRDNAKNTVYLQMNSLKPEDTAVYYCAVGKYNYRGSWDYYWGQGTQVTVSS | high polyreactivity
QVQLVESGGGLVQAGGSLRLSCAASGFIFDWNTMGWYRQAPGQERELVAAITESSGSTYYADSVKGRFTISRDNAKNTVYLQMNSLKPEDTAVYYCAAESLISWRYDYWGQGTQVTVSS | low polyreactivity
QVQLVESGGGLDQAGGSLRLICAASGSIFNGNAMGWYRQAPGKQRDLVAAITRRGGSTYYADSVKVRFTISRDNAKNTVYLQMNSLKPEDTAVYYCAAEDWLYKRPYKERIVQFYYWGQGTQVTVSS | low polyreactivity
QVQLVESGGGLVQAGGSLRLSCAASGSIFSYYGMGWYRQAPGKERELVAAITDGDGTNYADSVKGRFTISRDNAKNTVYLQMNSLKPEDTAVYYCARDDRDIRGESGREGFLYDYWGQGTQVTVSS | low polyreactivity
QGHLVESGGRLVQAGGSLRLSCAASGRIFPTYTMGWYRQAPWKERELVAAIRRGGGRTYYADSVKGRFTISRDNAKKTVYLQMNSLKPEDTAVYYCAAPFYRQSLIEYDYWGQGTQVTVSS | high polyreactivity
QVQLVESGGGLVQAGGSLRLSCAASGSIFAGYAMGWYRQAPGKERELVAAITSRGGNTYYADSVKGRFTISRDNAKNTVYLQMNSLKPEDTAVYYCAADVTRWSWVGTHYYWGQGTQVTVSS | high polyreactivity
QVQLVESGGGLVQAGGSLRLSCAASGRTFTVYAMGWYRQAPGKERELVAAIRRRGGSTYYADSVKGRFTISRDNAKNTVYLQMNSLKPEDTAVYYCAADNWYKKQKRPSAYDYWGQGTQVTVSS | high polyreactivity
QVQLVESGGGLVQAGGSLRLSCADSGSTIPKYAMGWSRQAPGKERELVAVITSGGSTYYADSVKGRFTISRDNAKNTVYLQMISLKPEDTAVYYCAARKYRRFDYWGQGTQVTVSS | high polyreactivity
QVQLVASGGGLVQAGGSHRLSCAASGRIFYYYAMGWYRQAPGKERELVASINSGGSTYYADSVKGPFTISRDNAKHTVYFQMNSLKPEDTACYYCAAGFQLVKGSLSGRAAYYYWGQGTQVTVSS | high polyreactivity
QVQLVESGGGLVQAGGSLRLSCASSGRIFGSYAMGWYRQAPGKERELVAGISKSGTSTYYADSVKGRFTISRDNAKNTVYLLMNSLKPEDTADYYCAKRFDSTKAKYYYWGQGTQGTVSS | high polyreactivity
QVQLVESGGGLVQAGGSLRLSCAASGIIFENYAMGWYRQAPGKERELVAAINKRGSRTYFADSVTGRFTISRDNAKNTVYLQMNSLKPEDTAVYYCNAVNPYYAPTDRRVGYDYWGQGTQVTVSS | high polyreactivity
QVQLVESGGGLVQAGGSLRLSCAASGRTFYYNGMGWYRQAPGKERELVAAITSGGTTSYADSVKGRFTISRDNAKNTVYLQRNSLKPEDTAVYYCNADYWAVNYDYWGQATQVTVSS | low polyreactivity
QDQLVETGGGLVQAGCSLRLSCAASGSIFTGYTMGWYRQAPGNEREFVAAIRATGGSTYYADSVKGRFTISRDNAKNTVYLQMNSLKPEDTAVFYCAVRSGGGSVRKRYGYWGQGTQVTVSS | high polyreactivity
QVQLVESGGGLVQAGGSLRLSCAASGRIFVLYAMGWYRQAPGKERELVADITVSGGSTYYADSVKGRFTISRDNAKNTVYLQMNSLKPEDTAVYYCAADQRYWKFDSWGQGTQVTVSS | high polyreactivity
QVQLQDSGVGLVQAGGSLRLSCAASGTISYRYRMGSYRQAPRKELELVAGISFGSITYNADSVKGRFTISRDNAKNTVYLQMNSLKPEDIAVYYCAVYQKSYRFFPYWGQGTQVTVSS | high polyreactivity
QVQLVESGGGKVQAGGSLRLSCAASGFIFRYYAMGWYRQAPGKERELGAAISKRGGSTYYADSVKGRFTISRDNAKNTVYLQMNSLKADDTAVYYCARGYPIDPSFDTYDYWGQGTQVTVSS | high polyreactivity
QVQLVESGGGLVQAGGSLRLSCAASGITFKTNARGWYRQAPGKERELVAAINKRGGSTYYADSVKGRFTISRDNAKNTVYLQMNSLKPEDTAVYYCARRYGEKFGGQGTQVTVSS | high polyreactivity

Sequence | polyreactivity (PSR sort gate)
QVQLVESGGGLVQAGGILRLSCTASGFTLGHYAMGWYRQSPGKERELVAVITSGSSTNYADSVKGRFTISRDNAKNTVYLQMNSLKPEDTAVYYCAAEDQFFKWLYYFWGEGTQVTVSS | low polyreactivity
QVQLVESGGGLVQAGGSLRLSCAASGSIFYYYAMGWYRQAPGKERELVAAISRNGGSTSYADSVKGRFTISRDNAKNTVYLQMNSLKPEDTAVYYCNTYGGYKYDYWGQGTQVTVSS | low polyreactivity
QVQLVESGGGLVQAGGSLRLSCAASGSTFGRYAMGCYIQAPGKERELVAAITRSGGRTYYADSVKGRFTISRDNAKNTVYLQMNSLIPEDTAVYYCAARSRRRFDWGQGTQVTVSS | high polyreactivity
QVQLVESGGGLVQAGGSLRLSCAASGFMFTRYAMGSYRQAPGKERELVAAISWIGTSTYYADSVKGRCTISRDNAKNTVFLQMNSLTPEDTAVYYCNALLYSTGRPGFYLGYDYWGQGTQVTVSS | high polyreactivity
QVQLVESGGGLVQAGGSLRLSCAASGLIFYGNAMGWYRQAPGKERELVAAISRRGGRTYYADSVKGRFTISRDKAKNTVYLQMKSLKPEDTAVYYCAADVIYSGDYWGQGTQVTVSS | high polyreactivity
QVQLVESGGGLVQAGGSLRLSCAASGRTFYYYGMGWYRQAPGKERELVATISWSGGSTYYADSVKGRFTISRDNAKNTVYLQMNSLKPEDTAVYYSAADGQFLYDHIEVDYWGQATQVTVSS | low polyreactivity
QVQLVESGGGLVQAGGSLRLSSAASGSTFNLYAMGWYRQAPGKERELVAAISRRGGSTYYADSVKGRFTISRDNAKNTVYLQMNSLKPEDTAVYYCAAVVVTGQGDKYDYWGQGTQVTVSS | high polyreactivity
QVQLVESGGGLVQAGGSLRLSCAASGSIFFLYGMGWYRQAPGKERELVAAIRKRGSSTYYADSVKGRFTISRDNAKNTVYLQMNSLKPEDTAVYYCAAAALGYYGYRGFDYWGQGTQVTVSS | low polyreactivity
QVQLVESGAGLVQAGGRIRLSCAASGRTLYGNTMGWYRPAPWKERELVAAINWSGGRTRYADSVKGRFTNSRDNAKNTVYVEMNSVKPEDTAVYYCAATKRANHERFGSWGQGTQVTVSS | high polyreactivity
QVQLVESGGGLVKAGGSLRLTCAASGRIFVNYAMGWYRQAPGKEMELVAAINWSGGRTYYADSVKGRFTISRDNAKNTVYLQMNSLKPEDTAVYYCAAEWEGTYTTVPDEFNYWGQGTQVTVSS | high polyreactivity
QVQLQESVGGLVQAGGTLRLSCAGRGNIYTHQLYMGSYRQAPGKEIDFVAAINFGASPYYADSVKGRNTISRDNAKNTVYLLMNSLKPEDTAVYYCAADSAFYDEYQEDYWGQGTQVTLSS | low polyreactivity
QVQLVESGGGLVQAGGSLRLSCAASGSIFPPYAIGSYRQAPGKERELVATITIRGGSTYYADSVKGRFTISRDNAKNTVYLQMNSLKPEDTAVYYCAADYTKYYRRYYYWGQGTQVTVSS | high polyreactivity
QVQLVESGGGLLQAGGSQSLSCAASGIISFSNTMGWYIQAPGKERELVAAIDSGGDDTYYADSVKGRFTISRDNAKNSVYLQMNCLKAEDSAVDYCAKDAFFTEIAIRDQIISHHYYWGHGTQVTVSS | low polyreactivity
QVQLVESGGGLVQAGGRLRLSCAASGFTLVGYAMGWSRQAPGKERELVAAISSGGGSTYYADSVKGRFTISRDNAKNTVYLQMNSLKPEDTAVYYCAVYVDYYGYGYWGQGTQVTVSS | high polyreactivity
QVQLVESGGGLVQAGGSLRLSCAASGRIFTYNTMGWYRQATGKEREFVASITYSGSSTYYADSVKGRFTISRDNAKNTVYLQMNSLKPEDTAVYYCATRYGYSDGDYWGQRTQVTVSS | low polyreactivity
QVQLVESGGGLVQAGGSLRLSCAASGNTFSAYAMGWYRQAPGKERELVAAISSRGGSTYYADSVKGRFTISRDNAKNTVYLQMNSLKPEDTAVYYCAAGYRGVANRKWIYYYWGQGTQVTVSS | high polyreactivity
QVQLVESGGGLVQAGGSLRLSCAASGIIFGHYDMGWYRQAPGKERELVAAITFTGDSTYYADSVKGRFTISRDNAKNTVYLQMNSLKPEDTAVYYCAAETPVPWGSWGYDYWGQGTQVTVSS | low polyreactivity
QVQLVESGGGLVHAGGRLRLSCAASGSTFSPYAMGWYRQPPGKERELVAAITRSGGRTYYADSVKGRFTISRDNAKNTVYLQMNSLKPEDTAVYYCAARNYKPYGYYRIYDSWGQGTQVTVSS | high polyreactivity
QVQLVESGGGLVQAGGSLRLSCAASGSIFNKYAMGWYRQAPGKERELVAAISVSGTRTYYADSVKGRFTISRDNAKNTVYLQMNSLKPEDTAVYYCAAGGVGAYDYWGQGTQVTVSS | high polyreactivity
QVQVVESGGGLVQAGGSLRLSCAASGYIINQYTMGWYRQAPGKERELVADNSSGGSTTYADSVKGRFTISRDNAKNTVYLQMNSLKTEHTAVYYCNAEYDSGSPTAYDWEYDYWGHGTQVTVSS | high polyreactivity
QVQLVESGGGLVQAGGSLRLSCAASGSIFLSYAMGWYRQAPGKERELVAAISGRGGSTYYADSVKGRFTISRDNAKNTGYLQMNSLKPEDTAVNYCASEQWGWYWYDYWGQGTQVTVSS | high polyreactivity
